Results on 167 variants are retold here after the RNAGym collection of RNA variant scans (doi:10.7554/elife.90254).

First the molecules themselves.
B1: LINE1-full (parent)
chain: UACGUAGGUGGUUUUCCCCUGAUAGUGCUAAGGGGGCCUGGAAGUUUGGACUGGGCAGAGCUCAACACAGCGUGGCAAAGUGGCUGUGGCUAGACUGCCUCUCUGGAUUCCUCGUCACUCAGCAGGGCAUCUCUGAGAGAAAUGCC

In the series the parent is B1. Kind of series: self-cleavage, relative activity (ratio to wild type); higher = more cleavage; in vitro, sequencing; the parent is a self-cleaving ribozyme.
Turning to U1A C84U, the self-cleavage amounted to 0.22.

In the case of A2G U132C, the self-cleavage came to 1.04.

Take U1G U132C: the self-cleavage came to 1.36.

As to U1C A124G, the self-cleavage came out at 0.75.

For A2U A138U, the self-cleavage amounted to 1.01.

In the case of U1C A30G, the self-cleavage came out at 0.73.

For U1C C113A, the self-cleavage was determined as 0.62.

Consider A2G U96A, for which the self-cleavage is 0.22.

As to U1C C103U, the self-cleavage was 0.29.

Regarding U1C U119A, the self-cleavage amounted to 1.47.

With U1A G106A, the self-cleavage was determined as 1.44.

As to U1C A138G, the self-cleavage came out at 0.7.

Turning to U1A U20A, the self-cleavage came to 0.81.

In the case of U1A A141U, the self-cleavage amounted to 1.42.

Take U1G A138G: the self-cleavage is 1.57.

In the case of U1C A140G, the self-cleavage came to 0.99.

As for A2G G36U, the self-cleavage stood at 0.67.

With A2U G97A, the self-cleavage worked out at 0.08.

As for C3G U132A, the self-cleavage is 0.24.

For A2C A65G, the self-cleavage turned out to be 0.12.

For U1A U104C, the self-cleavage was determined as 1.51.

Regarding U1A U104A, the self-cleavage worked out at 1.2.

On to A2G U91C, for which the self-cleavage is 0.45.

In the case of U1A U46G, the self-cleavage amounted to 0.96.

Take U1C C37G: the self-cleavage was determined as 0.73.

As for C3A U13A, the self-cleavage amounted to 0.79.

In the case of U1C U87C, the self-cleavage is 0.1.

For U1C U45A, the self-cleavage came to 0.84.

Turning to A2C A50U, the self-cleavage came out at 0.75.

Regarding A2C U119C, the self-cleavage was found to be 0.89.

As to A2G U85C, the self-cleavage was 0.48.

In the case of C3A A121G, the self-cleavage stood at 0.53.

For A2G A79G, the self-cleavage came to 0.87.

As to A2G A24U, the self-cleavage was found to be 1.34.

With A2G U5C, the self-cleavage came to 1.41.

Turning to U1C U14A, the self-cleavage was 0.81.

Turning to U1C U14C, the self-cleavage came out at 0.93.

With U1A U13C, the self-cleavage was determined as 0.91.

Turning to U1A G126C, the self-cleavage is 1.06.

A2U C76U: the self-cleavage came to 1.07.

Regarding C3A G55C, the self-cleavage came out at 0.07.

On to C3A U134C, for which the self-cleavage was determined as 0.92.

For the variant A2C U102C, the self-cleavage was 1.65.

A2U U29C: the self-cleavage was found to be 0.98.

With U1A A50G, the self-cleavage is 0.75.

U1A A31G: the self-cleavage was 1.26.

Regarding U1A G70C, the self-cleavage worked out at 0.43.

For U1A U134C, the self-cleavage was found to be 0.47.

U1C G70A: the self-cleavage is 0.04.

For the variant C3U A6U, the self-cleavage worked out at 0.2.

As to U1C A121G, the self-cleavage turned out to be 0.79.

For U1C A121U, the self-cleavage amounted to 1.06.

For A2U U96C, the self-cleavage was 0.31.

In the case of A2C G89A, the self-cleavage was 0.05.

On to U1A U130C, for which the self-cleavage is 1.46.

With A2U A64G, the self-cleavage was 0.23.

As for A2C A140G, the self-cleavage stood at 1.28.

Consider A2G C28U, for which the self-cleavage turned out to be 0.72.

On to U1A G40A, for which the self-cleavage was 1.26.

With A2U U109C, the self-cleavage amounted to 1.74.

On to A2G U109A, for which the self-cleavage is 0.65.

As to C3A U73A, the self-cleavage worked out at 0.64.

As to C3U C16U, the self-cleavage was found to be 0.76.

Regarding U1A U47C, the self-cleavage worked out at 1.02.

Consider U1A U47G, for which the self-cleavage is 1.53.

For the variant U1C A79G, the self-cleavage is 0.86.

With U1C U130A, the self-cleavage turned out to be 0.83.

For C3U G7C, the self-cleavage came out at 0.

C3U A50U: the self-cleavage worked out at 0.58.

Consider A2G A59U, for which the self-cleavage was found to be 0.8.

With C3U A107U, the self-cleavage amounted to 1.17.

Turning to A2G G75A, the self-cleavage turned out to be 0.7.

As for C3U C51G, the self-cleavage worked out at 1.31.

For U1C A31C, the self-cleavage came to 1.33.

On to A2G U108C, for which the self-cleavage is 0.94.

Take A2G U108A: the self-cleavage came to 1.02.

As for C3U A65G, the self-cleavage came to 0.17.

In the case of U1A A43U, the self-cleavage worked out at 0.68.

Consider C3A U104A, for which the self-cleavage stood at 0.7.

For A2G U62G, the self-cleavage turned out to be 0.37.

For the variant A2U C16U, the self-cleavage came out at 0.32.

Regarding U1C A107G, the self-cleavage worked out at 0.75.

With C3A A77G, the self-cleavage turned out to be 1.17.

Consider U1C G93A, for which the self-cleavage stood at 0.09.

In the case of A2G C37G, the self-cleavage was 0.87.

Consider A2U A67U, for which the self-cleavage was 0.05.

Turning to A2U A67C, the self-cleavage worked out at 0.12.

On to U1G G80A, for which the self-cleavage came out at 0.75.

Take A2G A107G: the self-cleavage was determined as 0.94.

Consider U1A A64G, for which the self-cleavage was 0.64.

U1C U85G: the self-cleavage was 0.08.

Regarding U1C U85A, the self-cleavage came to 0.03.

On to U1A A42G, for which the self-cleavage was 1.35.

On to A2G G35A, for which the self-cleavage stood at 1.2.

With A2G A30G, the self-cleavage stood at 0.87.

In the case of C3A A78G, the self-cleavage was 0.64.

Regarding A2G A67U, the self-cleavage worked out at 0.18.

Take A2G A67G: the self-cleavage stood at 0.41.

On to U1C G35A, for which the self-cleavage was 0.67.

Turning to U1C G35C, the self-cleavage came out at 1.26.

In the case of A2U A77G, the self-cleavage came out at 1.77.

With C3A G106A, the self-cleavage amounted to 0.57.

With C3A U87A, the self-cleavage was 0.1.

For the variant U1C A24C, the self-cleavage came to 0.91.

As for U1C A24G, the self-cleavage came out at 1.15.

As to U1C C128A, the self-cleavage came out at 0.79.

Regarding U1C U112C, the self-cleavage is 2.17.

Consider C3U G60U, for which the self-cleavage turned out to be 0.07.

Regarding A2G A31G, the self-cleavage came out at 1.

Turning to A2G A50G, the self-cleavage is 0.39.

For the variant A2G A50U, the self-cleavage amounted to 0.18.

Turning to U1C G25A, the self-cleavage stood at 0.72.

In the case of A2U G127C, the self-cleavage amounted to 1.16.

Turning to U1C A69U, the self-cleavage was found to be 0.04.

With U1C A69C, the self-cleavage was found to be 0.07.

On to U1C A69G, for which the self-cleavage amounted to 0.42.

For the variant A2G G74A, the self-cleavage was 0.69.

As for C3U A78G, the self-cleavage is 0.37.

Consider A2U U100A, for which the self-cleavage was 0.66.

Turning to A2U U100C, the self-cleavage amounted to 0.95.

A2G A43G: the self-cleavage was 0.87.

For the variant C3U G41A, the self-cleavage is 2.76.

As to U1A A79G, the self-cleavage was determined as 1.31.

Regarding U1A A79U, the self-cleavage came out at 0.91.

For the variant U1C U109C, the self-cleavage was 0.42.

As for U1C U109A, the self-cleavage is 2.04.

Take A2U U102C: the self-cleavage worked out at 2.12.

As for A2G A129U, the self-cleavage was found to be 0.62.

Turning to A2U U14C, the self-cleavage was 0.83.

Consider A2G U100C, for which the self-cleavage worked out at 0.62.

In the case of U1A U102A, the self-cleavage came out at 0.48.

U1A A67C: the self-cleavage stood at 0.3.

With A2G C19A, the self-cleavage stood at 1.24.

For A2G A121G, the self-cleavage stood at 1.44.

With U1A U73A, the self-cleavage worked out at 1.67.

Consider U1C U115C, for which the self-cleavage was 1.19.

As to C3U, the self-cleavage is 0.83.

As for C3A, the self-cleavage was determined as 0.69.

Take C3G: the self-cleavage came out at 1.34.

For U1A U52C, the self-cleavage was found to be 1.64.

U1C A50G: the self-cleavage amounted to 0.64.

As to A2U U52A, the self-cleavage was found to be 0.92.

With U1C A67G, the self-cleavage was determined as 0.41.

For A2G G114A, the self-cleavage turned out to be 0.82.

As for A2G A77U, the self-cleavage was 0.79.

U1A U87C: the self-cleavage was 0.5.

On to U1A G97A, for which the self-cleavage came to 0.38.

As for A2G U87C, the self-cleavage was 0.35.

Take U1C G10A: the self-cleavage is 0.95.

Turning to C3U G58U, the self-cleavage is 0.

Regarding A2G U9C, the self-cleavage was found to be 0.83.

As for A2G A138G, the self-cleavage turned out to be 0.98.

Turning to A2G A138U, the self-cleavage stood at 0.69.

Take U1C U39C: the self-cleavage was determined as 0.95.

For the variant U1A U96G, the self-cleavage was 0.

A2U A79U: the self-cleavage is 1.37.

Turning to C3A U52G, the self-cleavage turned out to be 1.31.

Turning to U1C A77G, the self-cleavage came out at 1.32.

Take C3A G122A: the self-cleavage worked out at 1.51.

On to A2G U26C, for which the self-cleavage was 0.88.

For the variant A2G U26A, the self-cleavage stood at 0.84.

As to A2G U23C, the self-cleavage stood at 0.69.

As for A2C U143A, the self-cleavage was 1.85.

As for U1C G114C, the self-cleavage turned out to be 2.19.

For U1A U12G, the self-cleavage is 0.97.

Turning to C3U A22U, the self-cleavage worked out at 0.99.

Turning to C3U A22G, the self-cleavage was found to be 0.95.
